For 1 protein, Km results are on record in ChEMBL document CHEMBL2073859, “Transport of 7-ethyl-10-hydroxycamptothecin (SN-38) by breast cancer resistance protein ABCG2 in human lung cancer cells” (Biochem Biophys Res Commun, 2001).

Substrate in series [1]: CCc1c2c(nc3ccc(O)cc13)-c1cc3c(c(=O)n1C2)COC(=O)[C@]3(O)CC
Nature of the series: (§1) TP_TRANSPORTER: uptake in membrane vesicle from PC-6/SN2-5H cells. Format: functional, cell membranes.

Substrate in series [2]: CCc1c2c(nc3ccc(OC[C@@H]4O[C@H](C(=O)O)[C@@H](O)[C@H](O)[C@H]4O)cc13)-c1cc3c(c(=O)n1C2)COC(=O)[C@]3(O)CC
The series is described as §1. In kind it is functional, cell membranes.

B1: Broad substrate specificity ATP-binding cassette transporter ABCG2 (Homo sapiens) (protein)
chain: MSSSNVEVFIPVSQGNTNGFPATASNDLKAFTEGAVLSFHNICYRVKLKSGFLPCRKPVEKEILSNINGIMKPGLNAILGPTGGGKSSLLDVLAARKDPSGLSGDVLINGAPRPANFKCNSGYVVQDDVVMGTLTVRENLQFSAALRLATTMTNHEKNERINRVIQELGLDKVADSKVGTQFIRGVSGGERKRTSIGMELITDPSILFLDEPTTGLDSSTANAVLLLLKRMSKQGRTIIFSIHQPRYSIFKLFDSLTLLASGRLMFHGPAQEALGYFESAGYHCEAYNNPADFFLDIINGDSTAVALNREEDFKATEIIEPSKQDKPLIEKLAEIYVNSSFYKETKAELHQLSGGEKKKKITVFKEISYTTSFCHQLRWVSKRSFKNLLGNPQASIAQIIVTVVLGLVIGAIYFGLKNDSTGIQNRAGVLFFLTTNQCFSSVSAVELFVVEKKLFIHEYISGYYRVSSYFLGKLLSDLLPMRMLPSIIFTCIVYFMLGLKPKADAFFVMMFTLMMVAYSASSMALAIAAGQSVVSVATLLMTICFVFMMIFSGLLVNLTTIASWLSWLQYFSIPRYGFTALQHNEFLGQNFCPGLNATGNNPCNYATCTGEEYLVKQGIDLSPWGLWKNHVALACMIVIFLTIAYLKLLFLKKYS
For the protein B1, the Km in series [1] was 4 µM; in series [2], 26 µM.
